Assay results reported in patent US20160039936A1, “FIBROBLAST GROWTH FACTOR RECEPTOR INHIBITION FOR THE TREATMENT OF DISEASE” (UNIVERSITY OF MIAMI, priority 2011, published 2016).

Columns and labels:
isolated NRVM = assay: Hypertrophic marker expression in NRVM (RT-PCR, α-actinin immunoblot); assay type: cell-based, rat; settings: for α-actinin protein levels: 48 h, immunoblotting; for expression of ANP and BNP / expression of medium chain acyl-CoA dehydrogenase (MCAD) / expression of α-myosin heavy chain (α-MHC) / expression of β-myosin heavy chain (β-MHC): RT-PCR
Description: RNA was purified from isolated NRVM using the RNeasy kit (Qiagen), and from mouse cardiac and renal tissue using 1 ml per 100 mg tissue TRIzol (Invitrogen), following the manufacturers' protocol. Prior to RT-PCR, total RNA samples were digested with DNase I (Roche) and RNA was transcribed into cDNA using Superscript II (Invitrogen). For RT-PCR, 100 ng cDNA, AmpliTaq Gold DNA polymerase (Applied Biosystems) and sequence specific primers were used. 30 cycles (95° C., 5 minutes-53° C., 30 seconds-72° C., 30 seconds) were run on a GeneAmp PCR System 9700 (Applied Biosystems) and reactions were analyzed on a 2% agarose gel. Ethidium bromide signals were captured with a Bio-Rad Gel Doc XR system and quantified by densitometry using ImageJ software (NIH). Values were normalized to GAPDH signals and cDNAs from three independent experiments were analyzed. For nested PCR, 100 ng cDNA were used in the first run (15 cycles) with sequence specific outside primers. Five percent of the reaction was used as template for the second run (25 cycles) with sequence specific inside primers, and the total reaction was analyzed by agarose gel electrophoresis.
NRVM were scraped from a 6 cm-plate using 400 μl CHAPS extraction buffer [(20 mM Tris-HCl pH7.5, 500 mM NaCl, 0.5% CHAPS, protease inhibitor cocktail (Roche), protein phosphatase inhibitors (Sigma-Aldrich)] and incubated on ice for 15 minutes. The cell lysate was centrifuged at 14,000 rpm and 4° C. for 15 minutes and the supernatant boiled in sample buffer and analyzed by SDS-PAGE and immunoblotting as described before (Faul et al., Cell Biol., 169(3):415-424, 2005; Faul et al., Mol. Cell Biol., 27(23):8215-8227, 2007). For protein extraction from mouse hearts, tissue was isolated, minced and homogenized in CHAPS extraction buffer at 1:10 (w:v) and protein lysates were prepared as described above. Antibodies to sarcomeric α-actinin (EA-53; Sigma-Aldrich; 1:1000), total (Cell Signaling; 1:1000) and phospho-ERK (Cell Signaling; 1:1000), total and phospho-NFAT-c1 (Santa Cruz Biotechnology; 1:200), total and phospho-Akt (Cell Signaling; 1:1000 and 1:2000), and GAPDH (Abcam; 1:10,000) were used as primary antibodies and horseradish peroxidase conjugated goat-anti-mouse and goat-anti-rabbit (Promega; 1:20,000) were secondary antibodies.

NFAT = NFAT gene reporter assay in NRVM; assay type: cell-based, rat; settings: FGF 25 ng/ml, 2 hours
Description: The assay was done as described previously (Kuhn et al., 2009). Briefly, 24 hours after plating, NRVM were serum-starved and infected by an adenovirus (AdNFAT-luc, 20 moi) carrying a firefly luciferase construct under the transcriptional control of three consensus NFAT binding sites (Biomyx). To enable normalization of the ensuing measurements, NRVMs were also infected with an adenovirus (AdRenilla, 10 moi) encoding a renilla luciferase under the transcriptional control of a CMV promoter. Cells were incubated in FGF23 or FGF2 at 25 ng/ml for 2 hours after pre-treatment with or without cyclosporine A (1 μg/ml; Sigma-Aldrich), AZD4547 (5 nM; ChemieTek), or anti-FGFR4/U3-11 (U3Pharma; 10 μg/ml) for 60 minutes. Chemiluminescence was detected and quantified in 4×10^5 cells using the Dual-Luciferase Reporter Assay System (Promega) according to the manufacturer's instructions, and Infinite M200 PRO reader (Tecan). Firefly luciferase activities were then normalized to renilla luciferase activities. All experiments were conducted in triplicates and repeated three times.

Molecule | α-actinin protein levels (isolated NRVM) | expression of ANP and BNP (isolated NRVM) | expression of medium chain acyl-CoA dehydrogenase (MCAD) (isolated NRVM) | expression of α-myosin heavy chain (α-MHC) (isolated NRVM) | expression of β-myosin heavy chain (β-MHC) (isolated NRVM) | luciferase activity (NFAT)
FGF23: recombinant mouse FGF23, 6His-tagged Tyr25-Val251 (Arg179Gln) (R&D Systems) (protein, left off: small tags and cut ends) YPDTSPLLGSNWGSLTHLYTATARTSYHLQIHRDGHVDGTPHQTIYSALMITSEDAGSVVITGAMTRRFLCMDLHGNIFGSLHFSPENCKFRQWTLENGYDVYLSQKHHYLVSLGRAKRIFQPGTNPPPFSQFLARRNEVPLLHFYTVRPRRHTQSAEDPPERDPLNVLKPRPRATPVPVSCSRELPSAEEGGPAASDPLGVLRRGRGDARGGAGGADRCRPFPRFV | increase | increased | decreased | decreased | increased | significant elevation
FGF2: recombinant mouse FGF2 (Ala11-Ser154) (R&D Systems) (protein) ALPEDGGAAFPPGHFKDPKRLYCKNGGFFLRIHPDGRVDGVREKSDPHVKLQLQAEERGVVSIKGVCANRYLAMKEDGRLLASKCVTEECFFFERLESNNYNTYRSRKYSSWYVALKRTGQYKLGSKTGPGQKAILFLPMSAKS | increase | increased | decreased | decreased | increased | did not increase
